For orientation: Kd means the concentration at which binding is half-saturated. A higher Kd goes with a looser complex. A word on the koff: it is a measure of how fast the partners let go of each other. Low readings indicate a long-lived complex, high ones a short-lived complex. A word on the kon: it is the rate constant with which the complex forms. Higher therefore signals fast association.

Read-outs that look alike come from different tables or passages of the source.

In assay [1] the target is T1, EGFR (wild type) expressed on target cells (UniProt P00533 25-1210, limits assumed).
T1 construct: whole, on cells; also called F98npEGFR; U87MG-EGFR
The assay is described as follows: flow cytometry of the subclone supernatant on F98npEGFR cells (Geom mean). On the technique in general: Flow cytometry measures light scatter and fluorescence of single cells or particles in a stream.

Assay [2] has as its target T2, EGFRvIII target antigen (SPR ligand) (UniProt P00533 25-645, limits assumed).
T2 construct: also called EGFRvIII antigen
In words: SPR; antibody as analyte.

The target in assay [3] is T3, EGFRvIII overexpressed on target cells (UniProt P00533 25-1210).
T3 construct: whole, on cells; Same protein on two cell lines: F98npEGFRvIII for flow cytometry, U87MG-EGFRvIII for the killing assays; also called F98npEGFRvIII; U87MG-EGFRvIII
In words: flow cytometry of the subclone supernatant on F98npEGFRvIII cells (Geom mean).

In assay [4] the target is T2, EGFRvIII target antigen (SPR ligand). The assay is described as follows: SPR; antibody as analyte. The source holds these as a separate data set. Background: Surface plasmon resonance follows binding to a sensor surface in real time, without labels.

B1: 20-2-43 (antibody, V domains shown)
VH: DVQLQESGPDLVKPSQSLSLNCTVTGYSITSGYSWHWIRQFPGNKLEWMGYIHYSGSTNYNPPLKSRIFIARDTSKNQFFLQLTSVTTEDTATYYCARGVVSNYAMGNWGQGTSVTVSS
VL: ETTVTQSPASLSMAIGEKVTIRCITNTDIDDDMNWYQQKPGEPPKLLISEGNTLRPGVPSRFSSSGYGTDFVFTIENMLSEDVADYYCLQSDDLPLTFGSGTKLEIK
notes: also called 115A10H4
Regarding B1, in assay [1], the binding result was “no binding”.

B2: humanized antibody 28-H3 (84C3G8H7-VH3 + VL1) (scFv)
scFv: QVQLVQSGAEVKKPGASVKVSCKASGFNIKDYYMHWVRQAPGQRLEWIGWIDPENGNTIYDPKFQGRATITADTSASTAYMELSSLRSEDTAVYYCARGWFAYWGQGTLVTVSSGGGGSGGGGSGGGGSGGGGSDIVMTQSPDSLAVSLGERATINCKSSQSLLNSSNQKNHLAWYQQKPGQPPKLLIYFASTRASGVPDRFSGSGSGTDFTLTISSLQAEDVAVYYCQQHYSTPLTFGGGTKLELK
notes: the format in the SPR assay is not clearly stated
In assay [2], B2 displayed a Kd of 167 nM, a koff of 0.0221 s⁻¹ and a kon of 132000 M⁻¹ s⁻¹.

B3: humanized antibody 28-H7 (84C3G8H7-VH3 + VL1(PTM)) (scFv)
scFv: QVQLVQSGAEVKKPGASVKVSCKASGFNIKDYYMHWVRQAPGQRLEWIGWIDPENGNTIYDPKFQGRATITADTSASTAYMELSSLRSEDTAVYYCARGWFAYWGQGTLVTVSSGGGGSGGGGSGGGGSGGGGSDIVMTQSPDSLAVSLGERATINCKSSQSLLNSSNQKNHLAWYQQKPGQPPKLLIYFASTRGSGVPDRFSGSGSGTDFTLTISSLQAEDVAVYYCQQHYSTPLTFGGGTKLELK
notes: as for B2
With B3, in assay [2], the Kd amounted to 77.2 nM, the koff came to 0.0112 s⁻¹ and the kon is 146000 M⁻¹ s⁻¹.

B4: humanized antibody 28-H4 (84C3G8H7-VH3 + VL2) (scFv)
scFv: QVQLVQSGAEVKKPGASVKVSCKASGFNIKDYYMHWVRQAPGQRLEWIGWIDPENGNTIYDPKFQGRATITADTSASTAYMELSSLRSEDTAVYYCARGWFAYWGQGTLVTVSSGGGGSGGGGSGGGGSGGGGSDIVMTQSPDSLAVSLGERATINCKSSQSLLNSSNQKNHLAWYQQKPGQPPKLLVYFASTRASGVPDRFSGSGSGTDFTLTISSLQAEDVAVYFCQQHYSTPLTFGGGTKLELK
notes: as for B2
In assay [2], B4 returned a Kd of 154 nM, a koff of 0.0206 s⁻¹ and a kon of 134000 M⁻¹ s⁻¹.

B5: humanized antibody 28-H9 (84C3G8H7-VH4 + VL1(PTM)) (scFv)
scFv: QVQLVQSGAEVKKPGASVKVSCKASGFNIKDYYMHWVKQAPGQRLEWIGWIDPENGNTIYDPKFQGRATITADTSANTAYMELSSLRSEDTAVYYCARGWFAYWGQGTLVTVSSGGGGSGGGGSGGGGSGGGGSDIVMTQSPDSLAVSLGERATINCKSSQSLLNSSNQKNHLAWYQQKPGQPPKLLIYFASTRGSGVPDRFSGSGSGTDFTLTISSLQAEDVAVYYCQQHYSTPLTFGGGTKLELK
notes: as for B2
In assay [2], B5 registered a Kd of 47.5 nM, a koff of 0.00665 s⁻¹ and a kon of 140000 M⁻¹ s⁻¹.

B6: humanized antibody 28-H8 (84C3G8H7-VH3 + VL2(PTM)) (scFv)
scFv: QVQLVQSGAEVKKPGASVKVSCKASGFNIKDYYMHWVRQAPGQRLEWIGWIDPENGNTIYDPKFQGRATITADTSASTAYMELSSLRSEDTAVYYCARGWFAYWGQGTLVTVSSGGGGSGGGGSGGGGSGGGGSDIVMTQSPDSLAVSLGERATINCKSSQSLLNSSNQKNHLAWYQQKPGQPPKLLVYFASTRGSGVPDRFSGSGSGTDFTLTISSLQAEDVAVYFCQQHYSTPLTFGGGTKLELK
notes: as for B2
Turning to B6, in assay [2], the Kd came to 72.6 nM, the koff turned out to be 0.0103 s⁻¹ and the kon worked out at 142000 M⁻¹ s⁻¹.

B7: humanized antibody 28-H5 (84C3G8H7-VH4 + VL1) (scFv)
scFv: QVQLVQSGAEVKKPGASVKVSCKASGFNIKDYYMHWVKQAPGQRLEWIGWIDPENGNTIYDPKFQGRATITADTSANTAYMELSSLRSEDTAVYYCARGWFAYWGQGTLVTVSSGGGGSGGGGSGGGGSGGGGSDIVMTQSPDSLAVSLGERATINCKSSQSLLNSSNQKNHLAWYQQKPGQPPKLLIYFASTRASGVPDRFSGSGSGTDFTLTISSLQAEDVAVYYCQQHYSTPLTFGGGTKLELK
notes: as for B2
In assay [2], B7 registered a Kd of 80.3 nM, an off-rate (koff) of 0.00891 s⁻¹ and a kon of 111000 M⁻¹ s⁻¹.

B8: 20-2-49 (antibody, V domains shown)
VH: QVQLQQSGAELAKPGASVKMSCKASAYTFTTYWMHWVKQRPGQGLEWIGYINPNTAYTEYNQNFKDKATLTADKSSSTAYMQLGSLTSEDSAVYYCARGAYYRTYYAMDYWGQGTSVTVSS
VL: DIVLTQSPASLAVSLGQRATISCKASQSVDYDGDSYMNWYQQKPGQPPKLLIYAASNLESGIPARFSGSGSGTDFTLNIHPVEEEDAATYYCLQSNEDPYTFGGGTRLEIN
notes: also called 121E9D12
B8: the binding result in assay [3] is recorded as “binds”; in assay [1], “no binding”.

B9: 20-2-25 (antibody, V domains shown)
VH: EVQLQQSGAELVRPGALVKLSCKASGFNIKDYYMHWVKQRPEQGLEWIGWIDPENGNTIYDPKFQGKASITADTSSNTAYLQLSSLTSEDTAVYYCARGYLVYWGQGTLVTVSA
VL: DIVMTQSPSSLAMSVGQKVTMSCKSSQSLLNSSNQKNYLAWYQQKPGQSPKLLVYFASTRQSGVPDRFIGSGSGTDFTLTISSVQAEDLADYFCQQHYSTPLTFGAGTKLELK
notes: the antibody in the subclone supernatant, not the CAR m26; also called 70B6F6H11
On to B9, for which the figures for the binding result in assay [3] and in assay [1] were “binds” and “no binding”, respectively.

B10: 84C3G8H7-chimeric-scFv (20-2-28) (scFv, V domains shown)
VH: EVQLQQSGAELVRPGALVKLSCKASGFNIKDYYMHWVKQRPEQGLEWIGWIDPENGNTIYDPKFQGKASITADTSSNTAYLQLSSLTSEDTAVYYCARGWFAYWGQGTLVTVSA
VL: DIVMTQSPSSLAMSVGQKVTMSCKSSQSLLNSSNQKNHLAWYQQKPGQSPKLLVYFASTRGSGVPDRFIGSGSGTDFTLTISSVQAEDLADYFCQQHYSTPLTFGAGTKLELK
In assay [2], B10 had a Kd of 59 nM, a koff of 0.00883 s⁻¹ and a kon of 150000 M⁻¹ s⁻¹.

B11: 20-2-22 (antibody, V domains shown)
VH: EVQLQQSGAELVRPGALVKLSCKASGFNIKDYYMHWVKQRPEQGLEWIGWIDPENGNTIYDPKFQGKASITADTSSNTACLQLSSLTSEDTAVYYCARGWFAYWGQGTLVTVSA
VL: DILMTQSPSSLAMSVGQKVTMSCKSSQSLLNSSNQKNHLAWYQQKPGQSPKLLVYFASTRQSGVPDRFIGSGSGTDFTLTISSVQAEDLADYFCQQHYSTPLTFGAGTKLELK
notes: also called 57D8C3
As for B11, the binding result is “binds” in assay [3] and “no binding” in assay [1].

B12: 20-2-16 (antibody, V domains shown)
VH: EVQLQQSGAELVRPGALVKLSCKASGFNIKDYYMHWVKQRPEQGLEWIGWIDPENGNTIYDPKFQGKATITADTSSNTAYLQLSSLTSEDTAVYYCARGYLVYWGQGTLVTVSA
VL: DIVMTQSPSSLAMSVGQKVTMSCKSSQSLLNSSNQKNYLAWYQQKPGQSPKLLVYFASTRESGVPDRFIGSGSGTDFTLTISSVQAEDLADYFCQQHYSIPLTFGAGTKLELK
notes: also called 90H3D2
Consider B12, for which the results for the binding result in assay [3] and in assay [1] were “binds” and “no binding”, respectively.

B13: 20-2-19 (antibody, V domains shown)
VH: EVQLQQSGAELVRPGALVKLSCKASGFNIKDYYMHWVKQRPEQGLEWIGWIDPENGNTIYDPKFQGKASITADTSSNTAYLQLSSLTSEDTAVYYCARGYLAYWGQGTLVTVSA
VL: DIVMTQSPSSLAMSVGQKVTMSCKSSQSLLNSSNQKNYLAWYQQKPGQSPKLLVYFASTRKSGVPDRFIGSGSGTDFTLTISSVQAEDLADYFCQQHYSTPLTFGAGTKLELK
notes: also called 53H2H7 (recombinantly expressed)
Turning to B13, the binding result in assay [3] is on record as “binds”; in assay [1], “no binding”.

B14: 20-2-31 (antibody, V domains shown)
VH: EVQLQQSGAELVRPGALVKLSCKASGFNIKDYYMHWVKQRPEQGLEWIGWIDPENGNTIYDPKFQGKASITADTSSNTAYLQLSSLTSEDTAVYYCARGYLVYWGQGTLVTVSA
VL: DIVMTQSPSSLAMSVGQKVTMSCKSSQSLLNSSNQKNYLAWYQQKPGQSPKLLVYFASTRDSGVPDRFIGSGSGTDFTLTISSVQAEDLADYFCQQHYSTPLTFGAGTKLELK
notes: also called 95G10G8E4
For the molecule B14, the results for the binding result in assay [3] and in assay [1] were “binds” and “no binding”, respectively.

B15: 20-2-34 (antibody, V domains shown)
VH: EVQLQQSGAELVRPGALVKLSCKASGFNIKDYYMHWVKQRPEQGLEWIGWIDPENGNTIYDPKFQGKASITADTSSNTAYLQLSSLTSEDTAVYYCARGYLVYWGQGTLVTVSA
VL: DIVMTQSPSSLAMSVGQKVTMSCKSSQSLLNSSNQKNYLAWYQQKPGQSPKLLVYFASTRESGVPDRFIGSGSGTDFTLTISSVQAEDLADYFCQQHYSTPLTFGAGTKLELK
notes: the antibody in the subclone supernatant, not the CAR m28; also called 84G9F9
B15: the binding result in assay [3] was “binds”; in assay [1], “no binding”.

B16: 20-2-10 (antibody, V domains shown)
VH: EVQLQQSGADLVRPGALVKLSCKASGFNIKDYYLHWVKQRPEQGLEWIGWIDPENGNTIYDPKFQGKASITADTSSNTAYLQLSSLTSEDTAVYYCARGYLTYWGQGTLVTVSA
VL: DIVMTQSPSSLAMSVGQKVTMNCKSSQNLLNSSNQKNYLAWFQQKPGQSPKLLVYFASTRYSGVPDRFMGSGSGTDFTLTVSSVQAEDLADYFCQQHYSTPLTFGAGTKLELK
notes: also called 75H11B1
B16: the binding result is on record as “binds” in assay [3] and “no binding” in assay [1].

B17: 20-2-37 (antibody, V domains shown)
VH: EVMLVESGGGLVKPGGSLKLSCAASRFTFSNYAMSWVRQTPEKRLEWVATITSGGSYTYYPDSVKGRFTISRDNAKNTLYLQMSSLRSEDTAMYYCARKDYGNYWFAYWGQGTLVTVSA
VL: DVVMTQTPLSLPVSLGDQASISCRSSQSLVHSDGNTYLHWYLQKPGQSPKLLIYKVSNRFSGVPDRFSGSGSGTDFTLKISRVEAEDLGVYFCSQSIHVPWTFGGGTKLEIK
notes: also called 98B10B12
Regarding B17, the binding result in assay [1] is listed as “no binding”.

B18: chimeric-VH + VL of clone 20-2-40-2 (98G2E9) (antibody, V domains shown)
VH: EVLLVESGGGLVKPGGSLKLSCAASGFTFSGYAMSWVRQTPEKRLEWVATITSGGSYTYYPDSVKGRFTISRDNAKNTLYLQMSSLRSEDTAMYYCARKDYGNYWFAYWGQGTLVTVSA
VL: DVVMTQTPLSLPVSLGDQASISCRSSQSLVHSDGNTYLHWYLQKPGQSPKLLIYKVSNRFSGVPDRFSGSGSGTDFTLKISRVEAEDLGVYFCSQTTQVPWTFGGGTKLEIK
notes: also called clone #40-2
In assay [4], B18 gave a Kd of 49.9 nM, a koff of 0.00181 s⁻¹ and a kon of 36200 M⁻¹ s⁻¹.

B19: 20-2-52 (antibody, V domains shown)
VH: QIQLVQSGPELKKPGETVKISCKASGYTFINYGMNWVKQTPGKGLKWMGWINTYTGEPTYADDFKGRFAFSLETSASTAYLQINNLKNEDMATYFCSREEFYSRGAMDYWGQGTSVTVSS
VL: DVLMTQTPLSLPVSLGDQASISCRSSQFIVHSNGNTYLEWYLQKPGQSPKLLIYKISNRFSGVPDRFSGSGSGTDFTLKISRVEAEDLGVYYCFQGSHVPFTFGSGTKLEIK
notes: also called 124A5F2
As to B19, the binding result in assay [3] is “binds”; in assay [1] it was “no binding”.

For the origin of these results see patent US20260108607A1 (BEIJING DCTY BIOTECH, published 2026).
